Literature values as cited in paper PMC11209772.
pKd: −log10 of the molar value. Where “and” joins values, the source holds several entries; their conditions need not be identical. Identical values can stand only once. Like-named read-outs stand apart in the source and are kept apart here. Values belong to the substance of their own block, whether it stands above or below them.

Key:
SSB (Escherichia coli) [1] = target: SSB (Escherichia coli) (UniProt P0AGE0); test: ITC
[2] = target: SSB-Ct peptide (Escherichia coli) (UniProt P0AGE0); test: FP
SSB (Escherichia coli) [3] = target: SSB (Escherichia coli) (UniProt P0AGE0); test: SPR
[4] = target: SSB C-terminal peptide C-terminal 15 residues (Escherichia coli) (UniProt P0AGE0); test: SPR
[5] = target: SSB-Ct peptide SSB-Ct (Escherichia coli) (UniProt P0AGE0); test: ITC
SSB (Escherichia coli) [6] = target: SSB (Escherichia coli) (UniProt P0AGE0); test: FP
SSB (Escherichia coli) [7] = target: SSB (Escherichia coli) (UniProt P0AGE0)
[8] = target: SSB-Ct peptide SSB-Ct (Escherichia coli) (UniProt P0AGE0); test: FP
[9] = target: SSB-Ct peptide SSB-Ct (Escherichia coli) (UniProt P0AGE0)

pKd (SSB (Escherichia coli) [1]): 5.22
Substance: RecQ (from UniProt P15043)

pKd [2]: 6.87
Substance: ExoI (from UniProt P04995)

pKd (SSB (Escherichia coli) [3]): 5.57
Substance: Pol III χψ (from UniProt P28905)

pKd [4]: 5.62
Substance: PriA (from UniProt P17888)

pKd [5]: 6.17 and 5.43
Substance: PriC (from UniProt P23862)

pKd (SSB (Escherichia coli) [1]): 5.70
Substance: RNase HI (from UniProt P0A7Y4)

pKd (SSB (Escherichia coli) [3]): 6.44
Substance: RarA (from UniProt P0AAZ4)

pKd (SSB (Escherichia coli) [6]): 5.70
Substance: DNA polymerase IV (from UniProt Q47155)

pKd (SSB (Escherichia coli) [7]): 6.48
Substance: DNA polymerase III subunit chi (from UniProt P28905)

pKd [8]: 7.22
Substance: RecO (from UniProt P0A7H3)

pKd (SSB (Escherichia coli) [3]): 6.77
Substance: UDG (from UniProt P12295)

pKd [2]: 5.27
pKd [9]: 5.27
Substance: RadD (from UniProt P33919)
